The values below come from PMC6542941.

In assay [1] the target is T1, human acid-sensing ion channel 1a variant hASIC1a-D212 (human) (UniProt P78348).
T1 sequence: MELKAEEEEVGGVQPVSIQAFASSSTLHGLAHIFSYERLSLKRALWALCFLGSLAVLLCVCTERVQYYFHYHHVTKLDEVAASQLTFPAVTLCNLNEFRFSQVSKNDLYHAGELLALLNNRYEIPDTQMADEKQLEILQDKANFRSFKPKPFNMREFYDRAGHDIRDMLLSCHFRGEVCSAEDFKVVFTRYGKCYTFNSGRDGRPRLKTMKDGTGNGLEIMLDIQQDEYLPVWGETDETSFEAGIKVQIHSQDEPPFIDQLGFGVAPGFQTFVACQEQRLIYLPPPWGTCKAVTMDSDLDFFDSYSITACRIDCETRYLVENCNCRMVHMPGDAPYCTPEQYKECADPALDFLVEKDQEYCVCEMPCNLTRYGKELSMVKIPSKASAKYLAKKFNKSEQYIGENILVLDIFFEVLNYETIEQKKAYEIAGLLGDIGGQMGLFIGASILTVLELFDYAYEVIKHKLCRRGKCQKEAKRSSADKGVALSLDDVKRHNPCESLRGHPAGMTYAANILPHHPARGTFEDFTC

Assay [2] concerns the target T2, human acid-sensing ion channel 1a wild type hASIC1a-G212 (human) (UniProt P78348).
T2 sequence: T1 sequence with D212G

The target of a further assay is human ASIC2a (human) (UniProt Q16515).
Sequence of UniProt Q16515 (Q16515 whole entry): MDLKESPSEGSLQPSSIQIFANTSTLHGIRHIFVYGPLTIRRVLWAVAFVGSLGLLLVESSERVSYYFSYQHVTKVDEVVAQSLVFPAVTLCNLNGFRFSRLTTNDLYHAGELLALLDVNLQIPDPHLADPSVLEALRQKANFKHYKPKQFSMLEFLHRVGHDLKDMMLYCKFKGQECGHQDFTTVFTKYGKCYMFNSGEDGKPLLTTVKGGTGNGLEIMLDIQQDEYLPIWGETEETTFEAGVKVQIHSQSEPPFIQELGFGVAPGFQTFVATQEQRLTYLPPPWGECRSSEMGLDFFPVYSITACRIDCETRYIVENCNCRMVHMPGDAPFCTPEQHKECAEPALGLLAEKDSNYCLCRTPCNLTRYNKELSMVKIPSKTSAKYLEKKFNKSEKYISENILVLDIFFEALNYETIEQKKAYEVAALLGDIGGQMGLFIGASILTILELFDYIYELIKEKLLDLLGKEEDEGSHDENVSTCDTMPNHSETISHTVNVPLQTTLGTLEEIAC

Positions count from the first letter of the chain named.

As to “Psalmotoxin1 (from UniProt P60514 1-40) (peptide)”, the figures for the IC50 of inhibition of the pH5.0-induced current, whole-cell patch-clamp of CHO cells; PcTx1 pre-applied 60 s in the conditioning pH 7.4 solution in assay [1] and in assay [2] were 1.19 nM and 1.83 nM, respectively.

B1: Mambalgin1 (peptide)
chain: LKCYQHGKVVTCHRDMKFCYHNTGMPFRNLKLILQGCSSSCSETENNKCCSTDRCNK
With B1, the IC50 of inhibition of the pH5.0-induced current, whole-cell patch-clamp of CHO cells; Mambalgin1 pre-applied 60 s in the conditioning pH 7.4 solution turned out to be 21.7 nM in assay [1] and 10.5 nM in assay [2].

B2: human acid-sensing ion channel 1a variant hASIC1a-D212 (receptor)
chain: T1 sequence
On to B2, for which, in the assay with human ASIC2a (human), the IpH5.8/IpH4.0 current ratio of co-transfected CHO cells, whole-cell patch-clamp was determined as 0.43.

B3: human acid-sensing ion channel 1a wild type hASIC1a-G212 (receptor)
chain: T1 sequence with D212G
Regarding B3, the IpH5.8/IpH4.0 current ratio of co-transfected CHO cells, whole-cell patch-clamp in the assay with human ASIC2a (human) was 0.41.
